Reference: patent publication US20230035798A1 (CAPELLA BIOSCIENCE, published 2023)

T1: recombinant human soluble LIGHT, amino acids 74-240 (R&D Systems 664-LI-025) (human, UniProt O43557 74-240)
T1 construct: range 74-240; also called 74-240 LIGHT; Soluble LIGHT 74-240
T1 chain: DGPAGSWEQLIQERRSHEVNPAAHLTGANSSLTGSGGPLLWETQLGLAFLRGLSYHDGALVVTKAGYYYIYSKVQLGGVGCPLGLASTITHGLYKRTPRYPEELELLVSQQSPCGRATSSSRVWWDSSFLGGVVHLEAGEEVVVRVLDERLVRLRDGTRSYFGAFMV


Tests used:
[1] = target: T2, human LIGHT (TNFSF14), full length, membrane-bound (214E allele) (human, UniProt O43557 1-240); assay: flow cytometry, maximum signal compared with F19 and F23
T2 construct: also called membrane LIGHT; human membrane LIGHT
Target sequence in this assay (O43557 whole entry K214E): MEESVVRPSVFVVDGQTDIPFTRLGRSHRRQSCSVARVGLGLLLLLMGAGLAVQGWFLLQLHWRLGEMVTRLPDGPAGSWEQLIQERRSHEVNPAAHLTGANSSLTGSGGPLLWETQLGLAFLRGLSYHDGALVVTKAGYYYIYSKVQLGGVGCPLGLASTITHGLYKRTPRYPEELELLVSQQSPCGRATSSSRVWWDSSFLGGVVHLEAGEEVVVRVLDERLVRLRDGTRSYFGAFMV

[2] = target: T2, human LIGHT (TNFSF14), full length, …; assay: flow cytometry, transiently transfected HEK293FF cells
Text: (§1) In order to compare the cross-reactivity of the mAbs to both human and cynomolgus LIGHT, transiently transfected human or cynomolgus LIGHT-HEK293FF cells were utilised in which approximately 50% of the cells expressed LIGHT and bound mAb was detected with goat anti-human IgG FITC. The EC50 of each mAb is depicted in Table 6 after correction for background binding to untransfected cells. (Note that when the relationship between receptor occupancy and response is linear, EC50 may be equivalent or substantially equivalent to KD).
Target sequence in this assay (O43557 whole entry K214E): as above

[3] = target: T3, cynomolgus (Macaca fascicularis) LIGHT, membrane-bound (cynomolgus (Macaca fascicularis), UniProt E9NVF7 1-240); assay: as above
T3 construct: whole, on cells; also called cynomolgus membrane LIGHT; HEK293FF-cynomolgus LIGHT cells
Text: as §1

[4] = target: T1, recombinant human soluble LIGHT, amino …; assay: SPR (BIAcore), as for Table 9
Protocol: (§2) Real-time binding interactions between captured antibody (chimeric anti-membrane LIGHT monoclonal antibody) captured on a biosensor matrix via goat anti-human Fe IgG and recombinant soluble LIGHT were measured by surface plasmon resonance (SPR) using the BIAcore system (GE Healthcare) according to manufacturer's instructions and standard procedures. Briefly, soluble LIGHT was diluted in HBS running buffer (GE Healthcare) and aliquots were injected through the immobilized protein matrices at a flow rate of […]. BIAevaluation software was used to calculate association rate (ka), dissociation rate (kd) and affinity (KD).
The specificity of further anti-membrane LIGHT mAbs to soluble LIGHT was determined by using the same BIAcore analysis discussed above which was used to generate the data in Table 9. In brief, mAbs 3B04, 3D12, 3A07, 3C10 and 2B11 were compared to various prior art antibodies, (F19 and F23 IgG4 mAbs from EP2292663 and 1C02, 13H04 and 31A10 mAbs from WO2015/107331).

[5] = target: T2, human LIGHT (TNFSF14), full length, …; assay: membrane LIGHT on cells, as for Table 9
Target sequence in this assay (O43557 whole entry K214E): as above

[6] = target: T2, human LIGHT (TNFSF14), full length, …; assay: soluble LIGHT 74-240 KD over membrane LIGHT KD
Target sequence in this assay (O43557 whole entry K214E): as above

[7] = target: membrane LIGHT without residues 81-84 (EL4-NC-LIGHT cells) (human, UniProt O43557 1-240); assay: cell-based or functional assay
[8] = target: T2, human LIGHT (TNFSF14), full length, …; assay: flow cytometry, EL4-LIGHT cells
Target sequence in this assay (O43557 whole entry K214E): as above

[9] = target: T1, recombinant human soluble LIGHT, amino …; assay: SPR (BIAcore), mAb captured on anti-human Fc, soluble LIGHT in flow
Protocol: as §2
(§3) The specificity of two lead anti-membrane LIGHT mAbs to soluble LIGHT was determined by BIAcore analysis and compared to the KD calculated from the EC50 values in Table 7 (results in Table 9). In brief, mAbs 3D12, 3B04 were compared to a mAb that binds both soluble and membrane LIGHT, F19, (F19 IgG4 mAb from EP2292663). An irrelevant anti-HEL mAb, 2A11, was used as a negative control. The mAbs were captured on an anti-human Fc mAb coated chip and soluble LIGHT was passed over the surface and the kinetic parameters were calculated using BIAcore 3000 software. The soluble LIGHT preparations used were amino acids 74-240 LIGHT (R&D Systems, 664-LI-025) and 64-240 LIGHT (Abcam, ab82123).

[10] = target: T4, soluble LIGHT, amino acids 64-240 (Abcam ab82123) (UniProt O43557 64-240); assay: as above
T4 construct: range 64-240; bought protein; also called 64-240 LIGHT; Soluble LIGHT 64-240
Protocol: as §2, §3

[11] = target: T2, human LIGHT (TNFSF14), full length, …; assay: flow cytometry, EL4-LIGHT cells, maximum signal compared with F19 and F23
Text: FIG. 7 depicts the flow cytometry analysis of the anti-membrane LIGHT mAbs (3B04 and 3D12) binding to LIGHT stably expressed on EL4 cells. The maximum signal of the IgG4 mAbs 3B04 and 3D12 binding to membrane LIGHT is approximately 40000 MFI. In contrast anti-LIGHT mAbs F19 and F23 (IgG4 mAbs from EP2292663) gave a maximal signal of approximately 120000 MFI. The ratio of binding of mAb F19 and mAb F23 is approximately 3 times that of the anti-membrane LIGHT mAbs 3B04 and 3D12. […] Other mAbs of this invention; 2E08, 3A07, 3C10, 3E09 and 2B11 also bind LIGHT in a 1:1 ratio when compared to mAbs F19 and F23 by flow cytometry.

[12] = target: T2, human LIGHT (TNFSF14), full length, …; assay: flow cytometry, mAb binding to EL4 cells stably expressing human LIGHT [lower panel]

T3 sequence (E9NVF7 entry or part of it): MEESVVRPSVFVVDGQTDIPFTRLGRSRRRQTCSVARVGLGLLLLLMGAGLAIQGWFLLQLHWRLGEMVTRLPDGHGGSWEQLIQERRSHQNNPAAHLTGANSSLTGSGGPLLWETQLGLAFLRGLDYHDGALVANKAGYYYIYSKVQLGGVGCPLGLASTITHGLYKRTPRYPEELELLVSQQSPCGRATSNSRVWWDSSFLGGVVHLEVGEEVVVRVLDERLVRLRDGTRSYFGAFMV
membrane LIGHT without residues 81-84 (EL4-NC-LIGHT cells), sequence (O43557 other isoform, or with tags, fused parts or gaps): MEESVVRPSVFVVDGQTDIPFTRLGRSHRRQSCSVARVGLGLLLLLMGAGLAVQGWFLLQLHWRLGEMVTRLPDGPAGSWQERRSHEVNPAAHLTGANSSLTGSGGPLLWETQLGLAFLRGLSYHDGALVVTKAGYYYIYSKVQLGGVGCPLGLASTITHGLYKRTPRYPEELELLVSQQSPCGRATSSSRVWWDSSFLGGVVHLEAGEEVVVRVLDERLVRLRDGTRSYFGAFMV

| Binder | binding ratio, mAb per LIGHT trimer [1] | EC50 [2] | EC50 [3] | Kd [4] | Kd [5] | Membrane:soluble LIGHT affinity ratio [6] | IC50, inhibition of IL-8 secretion from HT-29 cells (EL4-NC-LIGHT cells) [7] | EC50 [8] | Kd [9] | koff [9] | kon [9] | Kd [10] | koff [10] | kon [10] | binding ratio, mAb per LIGHT trimer [11] | EC50 (read off the curve) [12] |
| --- | --- | --- | --- | --- | --- | --- | --- | --- | --- | --- | --- | --- | --- | --- | --- | --- |
| 3E09 (antibody, V domains shown, chimeric human IgG4 (S-to-P, L-to-E at 248), human CL; also called Parental 3E09) VH: EVQLVESGGGLVKPGGSLKLSCEASGFTFSDYYMYWVRQTPEKRLEWVAAIGDGGIYTYYADTVKGRFTISRDNAKNILYLQMSSLKSNDTAMYYCARGTGDGFAYWGQGTLVTVS VL: DIVLTQSPASLAVSLGQRATISCRASESVDSYGNSFMHWYQQKPGQPPKLLIYLASNLESGVPARFSGSGSRTDFTLTIDPVEADDAATYYCQQNNEDPYTFGGGTKLEIK | 1 mAb per LIGHT trimer | 1.3 nM | 0.7 nM |  |  |  |  |  |  |  |  |  |  |  |  |  |
| 2E08 (antibody, human IgG4, V domains shown, chimeric human IgG4 (S-to-P, L-to-E at 248), human CL; also called Parental 2E08) VH: QVQMKESGAELVRPGVSVKISCKGSGYTFTDYAIHWVKQSHAKTLEWIGVISTYYGDASYNQKFKGKATMTVDKSSSTAYMELARLTSDDSAIYYCARSRGEYGNYDAMDYWGQGTSVTVSS VL: DIVLTQSPASLAVSLGQRATISCKASQSVDYDGDSYMNWYQQKPGQPPKLLIYAASNLESGIPARFSGSGSGTDFTLNIHPVEEEDAATYYCQQSNEDPLTFGAGTKLELK | 1 mAb per LIGHT trimer | 0.3 nM | 0.3 nM |  |  |  |  |  |  |  |  |  |  |  |  |  |
| 2B11 (antibody, human IgG4, V domains shown, chimeric human IgG4 (S-to-P, L-to-E at 248), human CL; also called Parental 2B11) VH: EVQLVESGAELVRPGVSVKISCKGSGYTFTDYAIHWVKQSHAKSLEWIGVISTYYGDASYNQKFKGKATMTVDKSSSTAYMELARLTSEDSAIYYCARSRGEYGNYDAMDYWGQGTSVTVSS VL: DIVLTQSPASLAVSLGQRATISCRASESVDSYGNSFMHWYQQKPGQPPKLLIYRASNLESGIPARFSGSGSRTDFTLTINPVEADDVATYYCQQSNEDPYTFGGGTKLEIK | 1 mAb per LIGHT trimer | 0.4 nM | 0.02 nM | 16 nM | 0.34 nM | 47.1 |  |  |  |  |  |  |  |  |  |  |
| 3A07 (antibody, human IgG4, V domains shown, chimeric human IgG4 (S-to-P, L-to-E at 248), human CL; also called Parental 3A07) VH: QVQLQQSGAELVRPGAPVTLSCKASDYTFTDSEIHWVKQTPVHGLEWIGEIDPETGGTAYNQKFKGKATLTADKSSSTAYMELRSLTSEDSAVYYCSRETDYFFDYWGQGTTLTVSS VL: ENVLTQSPAIMSASPGEKVTMTCSASSSVSYMYWYQQRPGSSPRLLIYDTSNLASGVPVRFSGSGSGTSYSLTISRMEAEDAATYYCQQWSSYPLTFGSGTKLEIK | 1 mAb per LIGHT trimer | 0.1 nM | 7.6 nM | 15.8 nM | 0.15 nM | 105 |  |  |  |  |  |  |  |  |  |  |
| 3B04 (antibody, human IgG4, V domains shown, chimeric: mouse variable domains on human IgG4 HC (S-to-P and L-to-E at 248) and human CL; also called Parental 3B04; 3B04 chimeric) VH: QVQLQQPGAELVRPGASVTLSCKASGYTFTDYEMHWVKQTPVHGLEWIGEIDPETGDTAYSQKFKGKATLTADKSSSTAYMEFRSLTSEDSAVYYCSRETDYFFDYWGQGTTLTVSS VL: DIQMTQTPASLSASVGETVTITCGASENIYGALNWYQRKQGKSPQLLIYGATNLADGMSSRFSGSGSGRQYSLKISSLHPDDFATYYCQNVLTTPWTFGGGTKLEIKR |  | 0.2 nM | 0.1 nM | 11.1 nM | 0.21 nM | 52.9 | 0.05 nM | 0.12 nM | 15.7 nM | 0.00348 s⁻¹ | 222000 M⁻¹ s⁻¹ | 13.8 nM | 0.00345 s⁻¹ | 251000 M⁻¹ s⁻¹ | 1 mAb per LIGHT trimer | ~0.2 nM |
| 3D12 (antibody, human IgG4, V domains shown, chimeric: mouse variable domains on human IgG4 HC (S-to-P and L-to-E at 248) and human CL; also called Parental 3D12; 3D12 chimeric) VH: QVQLQQPGAELVRPGASVTLSCKASDYTFTDSEIHWVKQTPVHGLEWIGEIDPETGGTAYNQKFKGKATLTADKSSSTAYMELRSLTSEDSAVYYCSRETDYFFDYWGQGTTLTVSS VL: DIQMTQSPASLSASVGETVTITCGASENIYGALNWYQRKQGKSPQLLIYGATNLADGMSSRFSGSGSGRQYSLKISSLHPDDVATYYCQNVLSTPWTFGGGTKLEIKR |  | 0.2 nM | 0.3 nM | 3.6 nM | 0.19 nM | 18.9 | 0.32 nM | 0.08 nM | 14 nM | 0.00235 s⁻¹ | 168000 M⁻¹ s⁻¹ | 10.7 nM | 0.00234 s⁻¹ | 219000 M⁻¹ s⁻¹ | 1 mAb per LIGHT trimer | ~0.2 nM |
| 3C10 (antibody, human IgG4, V domains shown, chimeric human IgG4 (S-to-P, L-to-E at 248), human CL; also called Parental 3C10) VH: EVQLQQSGAELVRPGASVTLSCKASDYTFTDSEIHWVKQTPVHGLEWIGEIDPETGGTAYNQKFKGKATLTADKSSSTAYMELRSLTSEDSAVYYCSRETDYFFDYWGQGTTLTVSS VL: DVVMTQTPAIMSASPGEKVTMTCSASSSVSYMYWYQQKPGSSPRLLIYDTSNLASGVPVRFSGSGSGTSYSLTISRMEAEDAATYYCQQWSSYPLTFGAGTKLELK | 1 mAb per LIGHT trimer | 0.2 nM | 10.3 nM | 11 nM | 0.18 nM | 61.1 |  |  |  |  |  |  |  |  |  |  |
